# Laboratory results taken from FireProtDB (doi:10.1002/pro.5560060717).
# Several values for one entry are separate records, joined by “and”; a condition that tells them apart may be missing. Equal values may be shown once.
# B1: Gamma-crystallin B, P02526 (parent)
# chain: MGKITFYEDRGFQGHCYECSSDCPNLQPYFSRCNSIRVDSGCWMLYERPNYQGHQYFLRRGDYPDYQQWMGFNDSIRSCRLIPQHTGTFRMRIYERDDFRGQMSEITDDCPSLQDRFHLTEVHSLNVLEGSWVLYEMPSYRGRQYLLRPGEYRRYLDWGAMNAKVGSLRRVMDFY
# Variants of: B1
# Conditions: Bos taurus; pH 2; 20 °C; Urea; Fluorescence; NaCl-HCl 100 mM; reversible: yes; structure 4GCR; whole UniProt chain shown
row,Variant,denaturant midpoint (higher = more stable)
1,MGKITFYEDRGFQGHCYECSSDCPNLQPYFSRCNSIRVDSGCWMLYERPNYQGHQYWLRRGDYPDYQQWMGFNDSIRSCRLIPQHTGTFRMRIYERDDFRGQMSEITDDCPSLQDRFHLTEVHSLNVLEGSWVLYEMPSYRGRQYLLRPGEYRRYLDWGAMNAKVGSLRRVMDFY [F57W],1.5 M and 4.2 M
